Data set [1] concerns the target Amyloid-beta 1-42, brain-derived (human (AD patient brain), UniProt P05067 672-713). In words: GFET Dirac shift; detected to ~10 fM, dose-dependent; GFET with immobilised aptamer; protein in 0.1x PBS (LoD series) or PBS; aptamer dissolved in 1x PBS + 0.5 mM MgCl2; pH and temperature of binding not given. To be noted: protein: native.
The target in data set [2] is Amyloid-beta 1-42 (synthetic) (UniProt P05067 672-713). The experiment in a line: GFET Dirac shift; LoD 10 fM (not a Kd); GFET with immobilised aptamer; protein in 0.1x PBS (LoD series) or PBS; aptamer dissolved in 1x PBS + 0.5 mM MgCl2; pH and temperature of binding not given.
Data set [3] addresses Tau441 (synthetic/commercial) (human, UniProt P10636-8 1-441). In words: GFET Dirac shift; LoD 1-10 pM in abstract, ~100 fM in Results (not a Kd); GFET with immobilised aptamer; protein in 0.1x PBS (LoD series) or PBS; aptamer dissolved in 1x PBS + 0.5 mM MgCl2; pH and temperature of binding not given.
The target in the next data set is Tau, brain-derived (human (AD patient brain), UniProt P10636-8 1-441). The experiment in a line: GFET Dirac shift; detected to 10-100 fM; GFET with immobilised aptamer; protein in 0.1x PBS (LoD series) or PBS; aptamer dissolved in 1x PBS + 0.5 mM MgCl2; pH and temperature of binding not given. To be noted: protein: native.
The target in data set [4] is alpha-synuclein, brain-derived (human (PD patient brain), UniProt P37840 1-140). The experiment in a line: GFET Dirac shift; detected to 10-100 nM as printed; GFET with immobilised aptamer; protein in 0.1x PBS (LoD series) or PBS; aptamer dissolved in 1x PBS + 0.5 mM MgCl2; pH and temperature of binding not given.
Data set [5] addresses alpha-synuclein (synthetic/commercial) (UniProt P37840 1-140). In words: GFET Dirac shift; LoD 10-100 fM (not a Kd); GFET with immobilised aptamer; protein in 0.1x PBS (LoD series) or PBS; aptamer dissolved in 1x PBS + 0.5 mM MgCl2; pH and temperature of binding not given.

Amyloid-beta 1-42, brain-derived, sequence (P05067 672-713): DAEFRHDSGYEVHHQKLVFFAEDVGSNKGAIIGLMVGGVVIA
Amyloid-beta 1-42 (synthetic), sequence (P05067 672-713): as above
Tau441 (synthetic/commercial), sequence (P10636 other isoform, or with tags, fused parts or gaps): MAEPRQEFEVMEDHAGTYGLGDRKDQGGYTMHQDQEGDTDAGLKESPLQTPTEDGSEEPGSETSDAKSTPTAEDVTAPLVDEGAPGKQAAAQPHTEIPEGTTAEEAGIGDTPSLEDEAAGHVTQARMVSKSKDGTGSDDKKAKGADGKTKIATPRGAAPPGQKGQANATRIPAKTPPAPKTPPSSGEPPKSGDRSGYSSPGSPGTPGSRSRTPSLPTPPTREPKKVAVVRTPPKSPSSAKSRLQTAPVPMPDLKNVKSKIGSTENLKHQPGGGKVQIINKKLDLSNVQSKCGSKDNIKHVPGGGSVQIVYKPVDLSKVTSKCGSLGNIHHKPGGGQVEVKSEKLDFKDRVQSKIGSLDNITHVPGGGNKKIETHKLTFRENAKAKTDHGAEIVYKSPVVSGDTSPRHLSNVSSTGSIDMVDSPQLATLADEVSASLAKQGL
Tau, brain-derived, sequence (P10636 other isoform, or with tags, fused parts or gaps): as above

Take CCGGTGGGGGACCAGTACAAAAGTGGGTAGGGCGGGTTGGAAAA (ssDNA, 3' amino) [Abeta aptamer Abeta7-92-1H1]: the binding result in data set [1] and in data set [2] was “binds” each time.

B1: Tau aptamer IT2 (ssDNA)
DNA: CAGCACCGTCAACTGAATAAGGACTGCTTAGGATTGCGATGATTCAGGGTGATGCGATGGAGATGT
modifications: 3' amino
For B1, the binding result is listed as “binds” in data set [3] and “binds” with Tau, brain-derived.

B2: alpha-synuclein aptamer F5R1 (ssDNA)
DNA: ATCGAGTGTGTACGGGGTCCGGTAGGGTGGCGAGGTCTTCCTGTCGTAGCAGGATCCA
modifications: 3' amino
On to B2, for which the binding result in data set [4] and in data set [5] was “binds” throughout.
